35 variants from the Human Domainome abundance scans (Beltran et al. 2025) can be followed below.

The chains are these.
B1: Ankyrin-1, residues 1405 to 1484; numbered along this chain, P16157 (parent)
chain: MKMAVISEHLGLSWAELARELQFSVEDINRIRVENPNSLLEQSVALLNLWVIREGQNANMENLYTALQSIDRGEIVNMLE

± gives the uncertainty stated by the source.

The variants in this data set derive from B1. Briefly: abundance fitness (aPCA) (normalised: wild type 0, dead -1); higher = more abundant; growth selection in yeast, the domain comes from the species named. The note with it: Homo sapiens.
Consider MKMAVISEHLGLSWAELARELQFSVEDINRIRVENPNSLLEQSVALLNLWVIRCGQNANMENLYTALQSIDRGEIVNMLE [E54C], for which the abundance fitness is -0.198 ± 0.089.
In the case of MKMAVISEHLGLSWAELARELQFSVEDINRIRVENPNSLLEQSVALLNLWVIREGQNANMENLYTALQSIDRNEIVNMLE [G73N] it was -0.33 ± 0.15; in that of MKMAVISEHLGLSWAELARELQFSVEDINRIRVENPNSLLEQSVALLNLWVIREGQNANMENLYTALQSIDRMEIVNMLE [G73M], -0.396 ± 0.085; in that of MKMAVISEHLGLSWAELARELQFSVEDINRIRVENPNSLLEQSVALLNLWVIREGQNANMENLYTALQSIDRTEIVNMLE [G73T], -0.306 ± 0.054.
In the case of MKMAVISEHLGLSWAELARELQFSVEDINRIRVENPNSLLEQSVALLHLWVIREGQNANMENLYTALQSIDRGEIVNMLE [N48H] it was -0.042 ± 0.086; in that of MKMAVISEHLGLSWAELARELQFSVEDINRIRVENPNSLLEQSVALLNLWVIREGQNANGENLYTALQSIDRGEIVNMLE [M60G], -0.813 ± 0.2.
In the case of MKMAVISEHLGLSWAELARELQFSVEDINRIRVENPNSLLESSVALLNLWVIREGQNANMENLYTALQSIDRGEIVNMLE [Q42S] it was -0.383 ± 0.079; in that of MKMAVISEHLGLSWAELARELQFSVEDINRIRVENQNSLLEQSVALLNLWVIREGQNANMENLYTALQSIDRGEIVNMLE [P36Q], 0.123 ± 0.11.
For the variant MKMAVISEHLGLSWAELARELQFSVEDINRIRVENWNSLLEQSVALLNLWVIREGQNANMENLYTALQSIDRGEIVNMLE [P36W], the abundance fitness was -0.219 ± 0.095.
Regarding MKMAVISEHLGLSWAELARELQFSVEDINRIPVENPNSLLEQSVALLNLWVIREGQNANMENLYTALQSIDRGEIVNMLE [R32P], the abundance fitness was -0.831 ± 0.23.
On to MKMAVISEHLGLSWAELARELQFSVEDINRIRVENPNSLLEQSVALLNPWVIREGQNANMENLYTALQSIDRGEIVNMLE [L49P], for which the abundance fitness is -0.81 ± 0.19.
In the case of MKMAVISEHLGLSWAELARELQFSVEDINRIRVENPNSLLEQSVALLNCWVIREGQNANMENLYTALQSIDRGEIVNMLE [L49C] it was -0.097 ± 0.09; in that of MKMAVISEHLGLSWPELARELQFSVEDINRIRVENPNSLLEQSVALLNLWVIREGQNANMENLYTALQSIDRGEIVNMLE [A15P], -0.025 ± 0.1.
In the case of MKMAVISEHLGLSWAELARELQFSVEDINRIRVENPNSLLEQSVALNNLWVIREGQNANMENLYTALQSIDRGEIVNMLE [L47N] it was -0.914 ± 0.35.
In the case of MKMAVISEHLGHSWAELARELQFSVEDINRIRVENPNSLLEQSVALLNLWVIREGQNANMENLYTALQSIDRGEIVNMLE [L12H] it was 0.274 ± 0.15.
With MKMAVISEHLGLSWAELARELNFSVEDINRIRVENPNSLLEQSVALLNLWVIREGQNANMENLYTALQSIDRGEIVNMLE [Q22N], the abundance fitness is -0.077 ± 0.22.
Turning to MKMAVISEHLGLRWAELARELQFSVEDINRIRVENPNSLLEQSVALLNLWVIREGQNANMENLYTALQSIDRGEIVNMLE [S13R], the abundance fitness is -0.442 ± 0.09.
As for MKMAVISEHLGLSWAELAAELQFSVEDINRIRVENPNSLLEQSVALLNLWVIREGQNANMENLYTALQSIDRGEIVNMLE [R19A], the figure is -0.047 ± 0.06; as for MKMAVISEHLGLSWAELARELQFSVEDINRIRVENPNSLLEQSVALLNLWVIREGQNANMENLETALQSIDRGEIVNMLE [Y64E], -0.353 ± 0.096.
As for MKMAVISEHLGLSWAELARELQFWVEDINRIRVENPNSLLEQSVALLNLWVIREGQNANMENLYTALQSIDRGEIVNMLE [S24W], the figure is -0.925 ± 0.25.
In the case of MKMAVISEHLGLSWAELARELQFSVEDINRIRVENPNSLLPQSVALLNLWVIREGQNANMENLYTALQSIDRGEIVNMLE [E41P] it was -0.574 ± 0.19.
For MKMAVISEHLGLSWAELARELQFSVEDINRIRVENPNSLLEQSVALLNLWVIREGQNANMENLYTALQSIDRGEIVNMLP [E80P], the abundance fitness was found to be 0.049 ± 0.21.
For MKMAVISEHLGLSWAELARELQFSVEDINRIRVENPNSLLEQSVALLNLWVIREGQNANMENLYTALQSIDRGEIVSMLE [N77S], the abundance fitness was -0.005 ± 0.073.
In the case of MKMAVISGHLGLSWAELARELQFSVEDINRIRVENPNSLLEQSVALLNLWVIREGQNANMENLYTALQSIDRGEIVNMLE [E8G] it was -0.273 ± 0.039; in that of MKMAVISEHLGLSWAELARELQFSVEDINRIRVENPNSLLEQSVALLNLWVIREGQNANMRNLYTALQSIDRGEIVNMLE [E61R], -0.316 ± 0.16; in that of MKMAVISEHLGLSWAELARELQFSVEDINRIRVENPNSLLEQSSALLNLWVIREGQNANMENLYTALQSIDRGEIVNMLE [V44S], 0.154 ± 0.045.
As for MKMAVISEHLGLSWAELARELQFSVEDINRIRVENPNSLLEQSVALLNLWVIREGQAANMENLYTALQSIDRGEIVNMLE [N57A], the figure is -0.212 ± 0.13.
As for MKMAVISEHLGLSWAELARELQFSVEDINRRRVENPNSLLEQSVALLNLWVIREGQNANMENLYTALQSIDRGEIVNMLE [I31R], the figure is -0.647 ± 0.083; as for MKMAVISEHLGLSWAELARELQFSVEDINRYRVENPNSLLEQSVALLNLWVIREGQNANMENLYTALQSIDRGEIVNMLE [I31Y], -0.448 ± 0.41; as for MKMAVISEHLGLSWAEEARELQFSVEDINRIRVENPNSLLEQSVALLNLWVIREGQNANMENLYTALQSIDRGEIVNMLE [L17E], -0.204 ± 0.16.
For the variant MKMAVISEHLGLSWAELARELQFSVWDINRIRVENPNSLLEQSVALLNLWVIREGQNANMENLYTALQSIDRGEIVNMLE [E26W], the abundance fitness is -0.197 ± 0.054.
For MKMAVISEHLGLSWAELARELQFSVIDINRIRVENPNSLLEQSVALLNLWVIREGQNANMENLYTALQSIDRGEIVNMLE [E26I], the abundance fitness is -0.303 ± 0.15.
As for MKMAVISEHLGLSWAELARELQFSVEDINRIRVENPNSLLEQSVALLNLWVIREGQNANMENLYLALQSIDRGEIVNMLE [T65L], the figure is -0.072 ± 0.049; as for MKMAVISEHLGLSWAELARELQFSVEDINRIRVENPNSLLEQSVALLNLWVIREGVNANMENLYTALQSIDRGEIVNMLE [Q56V], 0.07 ± 0.065; as for MKMAVISEHLGLSWAELARELQFSVEDINRIRVENPNMLLEQSVALLNLWVIREGQNANMENLYTALQSIDRGEIVNMLE [S38M], -0.353 ± 0.12.
